{
  "source": "patent US20030113711A1",
  "about": "“Protein kinase peptide substrate determination using peptide libraries” (priority 2001, published 2003)",
  "molecules": {"B1": {"name": "ErbB-4 (protein)", "chain": "RRKSIKKKRALRRFLETELVEPLTPSGTAPNQAQLRILKETELKRVKVLGSGAFGTVYKGIWVPEGETVKIPVAIKILNETTGPKANVEFMDEALIMASMDHPHLVRLLGVCLSPTIQLVTQLMPHGCLLEYVHEHKDNIGSQLLLNWCVQIAKGMMYLEERRLVHRDLAARNVLVKSPNHVKITDFGLARLLEGDEKEYNADGGKMPIKWMALECIHYRKFTHQSDVWSYGVTIWELMTFGGKPYDGIPTREIPDLLEKGERLPQPPICTIDVYMVMVKCWMIDADSRPKFKELAAEFSRMARDPQRYLVIQGDDRMKLPSPNDSKFFQNLLDEEDLEDMMDAEEYLVPQAFNIPPPIYTSRARIDSNRSEIGHSPPPAYTPMSGNQFVYRDGGFAAEQGVSVPYRAPTSTIPEAPVAQGATAEIFDDSCCNGTLRKPVAPHVQEDSSTQRYSADPTVFAPERSPRGELDEEGYMTPMRDKPKQEYLNPVEENPFVSRRKNGDLQALDNPEYHNASNGPPKAEDEYVNEPLYLNTFANTLGKAEYLKNNILSMPEKAKKAFDNPDYWNHSLPPRSTLQHPDYLQEYSTKYFYKQNGRIRPIVAENPEYLSEFSLKPGTVLPPPPYRHRNTVV"}},
  "key": {"[1]": {"molecular_target": "T1, EGFR (Homo sapiens, UniProt P00533)", "experiment": "Kinetic evaluation of peptide substrates, varying peptide at fixed ATP (phosphocellulose filter, [γ-33P]ATP)", "format": "biochemical", "settings": "ATP concentration >10 × Km (200 μM ATP); for Kcat: varying peptide, 10 minutes at 23° C.; for Km: Km for peptide", "description": "Peptide sequences identified as preferred substrates for ErbB-2 using the methods described in Laboratory Example 3 were synthesized. The kcat and Km values for each peptide were determined as follows, using the kinases ErbB-2, ErbB-4, and EGFR.\nReactions were performed in 96-well polystyrene round bottom plates in a final volume of 45 μL. Reaction mixtures contained 50 mM MOPS, pH 7.5, 10 mM MnCl2, 1 mM dithiothreitol (DTT), 200 μM ATP, 1.0 μCi [γ-^33P] ATP, and varying concentrations of peptide. The reaction was initiated by adding the purified kinase of interest and halted after 10 minutes at 23° C. (room temperature) by adding 45 μL of 0.5% phosphoric acid in water. A 75 μL aliquot of the halted reaction mixture was then transferred to MAPH phosphocellulose filter plates (Millipore, Bedford, Mass.). The plates were filtered three times with 0.2 mL of 0.5 percent phosphoric acid. Scintillation cocktail (50 μL) was added to each well, and the plate was analyzed by counting in a Packard TOPCOUNT® scintillation counter (Packard Instrument Co., Meriden, Conn.). In these assays, the concentration of ATP was greater than ten-fold higher than the Km for ATP, which permitted the kinetic data to be treated as a pseudo-first-order reaction with varying peptide concentration. All experiments were performed in quadruplicate and the average value for each data point was analyzed. The Km and Vmax values were calculated by fitting the data to the Henri-Michaelis-Menten equation by non-linear regression using SIGMAPLOT® (SPSS Science, Chicago, Ill.). kcat values were calculated using the Vmax value, and are based on the protein concentration of the enzyme preparation and an estimate of purity determined from an evaluation of a Coomassie Blue stained SDS-polyacrylamide gel."}, "[2]": {"molecular_target": "T1, EGFR", "experiment": "Two-substrate kinetic comparison with known substrate, peptide and ATP varied simultaneously", "format": "biochemical", "settings": "peptide and ATP concentrations varied simultaneously, two-substrate fit", "description": "In a separate experiment, the kinetic parameters of both peptide number 1 shown in Table 2, and a peptide with the sequence Biotin-Ahx-G-G-M-E-D-I-Y-F-E-F-M-G-G-K-K-K-amide (SEQ ID NO: 17), which has been previously identified as an ErbB-2 substrate (Jan et. al., (2000), Biochemistry 39: 9786-803), were determined and compared. In this experiment, both peptide and ATP concentrations were varied, and the resulting data was simultaneously fit to an equation representing a two-substrate enzyme reaction using SIGMAPLOT®. Data was collected using the kinases ErbB-2, ErbB-4, and EGFR. The results of this experiment are shown in Table 3 and indicate that for all three kinases tested, peptide number 1 shown in Table 2 is kinetically at least equivalent (based on kcat/Km values) to the known peptide substrate identified by Jan et al."}, "[3]": {"molecular_target": "T2, Biotin-Ahx-(SEQ ID NO: 12)-amide", "T2 chain": "RAHEEIYHFFFAKKK"}, "[4]": {"molecular_target": "T3, Biotin-Ahx-(SEQ ID NO: 13)-amide", "T3 chain": "RAHHEIYHFFFAKKK"}, "[5]": {"molecular_target": "T4, Biotin-Ahx-(SEQ ID NO: 14)-amide", "T4 chain": "RAHHEEYHFFFAKKK"}, "[6]": {"molecular_target": "T5, Biotin-Ahx-(SEQ ID NO: 15)-amide", "T5 chain": "RAHEEEYHFIFAKKK"}, "[7]": {"molecular_target": "T6, Biotin-Ahx-(SEQ ID NO: 16)-amide", "T6 chain": "RAHEEEYHFFFAKKK"}, "[8]": {"molecular_target": "T7, Biotin-Ahx-G-G-M-E-D-I-Y-F-E-F-M-G-G-K-K-K-amide (SEQ ID NO: 17)", "T7 chain": "GGMEDIYFEFMGGKKK"}},
  "note": "Where a SMILES comes first, the peptide text is derived from it. The star is where a group is joined. Biotin = O=C1N[C@H]2[C@H](CS[C@H]2CCCCC(=O)*)N1; Ahx = NCCCCCC(=O)O",
  "data": [
    {"molecule": "CC[C@H](C)[C@H](NC(=O)[C@H](CCC(=O)O)NC(=O)[C@H](CCC(=O)O)NC(=O)[C@H](Cc1c[nH]cn1)NC(=O)[C@H](C)NC(=O)[C@H](CCCNC(=N)N)NC(=O)CCCCCNC(=O)CCCC[C@@H]1SC[C@@H]2NC(=O)N[C@@H]21)C(=O)N[C@@H](Cc1ccc(O)cc1)C(=O)N[C@@H](Cc1c[nH]cn1)C(=O)N[C@@H](Cc1ccccc1)C(=O)N[C@@H](Cc1ccccc1)C(=O)N[C@@H](Cc1ccccc1)C(=O)N[C@@H](C)C(=O)N[C@@H](CCCCN)C(=O)N[C@@H](CCCCN)C(=O)N[C@@H](CCCCN)C(N)=O", "note": "[Peptide 1, Biotin-Ahx-(SEQ ID NO: 12)-amide] ({Biotin-Ahx}-RAHEEIYHFFFAKKK-NH2)", "values": [
      {"measurement": "Kcat", "setting": "[1]", "value": 0.102, "unit": "s⁻¹"},
      {"measurement": "Km", "setting": "[1]", "value": 8, "unit": "µM"},
      {"measurement": "Kcat", "setting": "[2]", "value": 0.0567, "unit": "s⁻¹"},
      {"measurement": "Km", "setting": "[2]", "value": 128, "unit": "µM"}
    ]},
    {"molecule": "CC[C@H](C)[C@H](NC(=O)[C@H](CC(=O)O)NC(=O)[C@H](CCC(=O)O)NC(=O)[C@H](CCSC)NC(=O)CNC(=O)CNC(=O)CCCCCNC(=O)CCCC[C@@H]1SC[C@@H]2NC(=O)N[C@@H]21)C(=O)N[C@@H](Cc1ccc(O)cc1)C(=O)N[C@@H](Cc1ccccc1)C(=O)N[C@@H](CCC(=O)O)C(=O)N[C@@H](Cc1ccccc1)C(=O)N[C@@H](CCSC)C(=O)NCC(=O)NCC(=O)N[C@@H](CCCCN)C(=O)N[C@@H](CCCCN)C(=O)N[C@@H](CCCCN)C(N)=O", "note": "[Biotin-Ahx-(SEQ ID NO: 17)-amide, Biotin-Ahx-G-G-M-E-D-I-Y-F-E-F-M-G-G-K-K-K-amide, reference compound] ({Biotin-Ahx}-GGMEDIYFEFMGGKKK-NH2)", "values": [
      {"measurement": "Kcat", "setting": "[2]", "value": 0.218, "unit": "s⁻¹"},
      {"measurement": "Km", "setting": "[2]", "value": 899, "unit": "µM"}
    ]},
    {"molecule": "C[C@H](NC(=O)[C@H](CCCNC(=N)N)NC(=O)CCCCCNC(=O)CCCC[C@@H]1SC[C@@H]2NC(=O)N[C@@H]21)C(=O)N[C@@H](Cc1c[nH]cn1)C(=O)N[C@@H](Cc1c[nH]cn1)C(=O)N[C@@H](CCC(=O)O)C(=O)N[C@@H](CCC(=O)O)C(=O)N[C@@H](Cc1ccc(O)cc1)C(=O)N[C@@H](Cc1c[nH]cn1)C(=O)N[C@@H](Cc1ccccc1)C(=O)N[C@@H](Cc1ccccc1)C(=O)N[C@@H](Cc1ccccc1)C(=O)N[C@@H](C)C(=O)N[C@@H](CCCCN)C(=O)N[C@@H](CCCCN)C(=O)N[C@@H](CCCCN)C(N)=O", "note": "[Peptide 3, Biotin-Ahx-(SEQ ID NO: 14)-amide] ({Biotin-Ahx}-RAHHEEYHFFFAKKK-NH2)", "values": [
      {"measurement": "Kcat", "setting": "[1]", "value": 0.108, "unit": "s⁻¹"},
      {"measurement": "Km", "setting": "[1]", "value": 12.2, "unit": "µM"}
    ]},
    {"molecule": "C[C@H](NC(=O)[C@H](CCCNC(=N)N)NC(=O)CCCCCNC(=O)CCCC[C@@H]1SC[C@@H]2NC(=O)N[C@@H]21)C(=O)N[C@@H](Cc1c[nH]cn1)C(=O)N[C@@H](CCC(=O)O)C(=O)N[C@@H](CCC(=O)O)C(=O)N[C@@H](CCC(=O)O)C(=O)N[C@@H](Cc1ccc(O)cc1)C(=O)N[C@@H](Cc1c[nH]cn1)C(=O)N[C@@H](Cc1ccccc1)C(=O)N[C@@H](Cc1ccccc1)C(=O)N[C@@H](Cc1ccccc1)C(=O)N[C@@H](C)C(=O)N[C@@H](CCCCN)C(=O)N[C@@H](CCCCN)C(=O)N[C@@H](CCCCN)C(N)=O", "note": "[Peptide 5, Biotin-Ahx-(SEQ ID NO: 16)-amide] ({Biotin-Ahx}-RAHEEEYHFFFAKKK-NH2)", "values": [
      {"measurement": "Kcat", "setting": "[1]", "value": 0.04, "unit": "s⁻¹"},
      {"measurement": "Km", "setting": "[1]", "value": 7.5, "unit": "µM"}
    ]},
    {"molecule": "CC[C@H](C)[C@H](NC(=O)[C@H](Cc1ccccc1)NC(=O)[C@H](Cc1c[nH]cn1)NC(=O)[C@H](Cc1ccc(O)cc1)NC(=O)[C@H](CCC(=O)O)NC(=O)[C@H](CCC(=O)O)NC(=O)[C@H](CCC(=O)O)NC(=O)[C@H](Cc1c[nH]cn1)NC(=O)[C@H](C)NC(=O)[C@H](CCCNC(=N)N)NC(=O)CCCCCNC(=O)CCCC[C@@H]1SC[C@@H]2NC(=O)N[C@@H]21)C(=O)N[C@@H](Cc1ccccc1)C(=O)N[C@@H](C)C(=O)N[C@@H](CCCCN)C(=O)N[C@@H](CCCCN)C(=O)N[C@@H](CCCCN)C(N)=O", "note": "[Peptide 4, Biotin-Ahx-(SEQ ID NO: 15)-amide] ({Biotin-Ahx}-RAHEEEYHFIFAKKK-NH2)", "values": [
      {"measurement": "Kcat", "setting": "[1]", "value": 0.0567, "unit": "s⁻¹"},
      {"measurement": "Km", "setting": "[1]", "value": 10, "unit": "µM"}
    ]},
    {"molecule": "CC[C@H](C)[C@H](NC(=O)[C@H](CCC(=O)O)NC(=O)[C@H](Cc1c[nH]cn1)NC(=O)[C@H](Cc1c[nH]cn1)NC(=O)[C@H](C)NC(=O)[C@H](CCCNC(=N)N)NC(=O)CCCCCNC(=O)CCCC[C@@H]1SC[C@@H]2NC(=O)N[C@@H]21)C(=O)N[C@@H](Cc1ccc(O)cc1)C(=O)N[C@@H](Cc1c[nH]cn1)C(=O)N[C@@H](Cc1ccccc1)C(=O)N[C@@H](Cc1ccccc1)C(=O)N[C@@H](Cc1ccccc1)C(=O)N[C@@H](C)C(=O)N[C@@H](CCCCN)C(=O)N[C@@H](CCCCN)C(=O)N[C@@H](CCCCN)C(N)=O", "note": "[Peptide 2, Biotin-Ahx-(SEQ ID NO: 13)-amide] ({Biotin-Ahx}-RAHHEIYHFFFAKKK-NH2)", "values": [
      {"measurement": "Kcat", "setting": "[1]", "value": 0.252, "unit": "s⁻¹"},
      {"measurement": "Km", "setting": "[1]", "value": 105, "unit": "µM"}
    ]},
    {"molecule": "B1", "values": [
      {"measurement": "Kcat", "setting": "[3]", "value": 0.0683, "unit": "s⁻¹"},
      {"measurement": "kcat", "setting": "[3]", "value": 0.105, "unit": "s⁻¹"},
      {"measurement": "kinetic comparison with the known substrate (SEQ ID NO: 17), based on kcat/Km", "setting": "[3]", "value": "for all three kinases tested, peptide number 1 shown in Table 2 is kinetically at least equivalent (based on kcat/Km values) to the known peptide substrate identified by Jan et al."},
      {"measurement": "Kcat", "setting": "[4]", "value": 0.0767, "unit": "s⁻¹"},
      {"measurement": "Km", "setting": "[4]", "value": 37.6, "unit": "µM"},
      {"measurement": "kcat/Km", "setting": "[4]", "value": 2000, "unit": "M⁻¹ s⁻¹"},
      {"measurement": "Kcat", "setting": "[5]", "value": 0.065, "unit": "s⁻¹"},
      {"measurement": "Km", "setting": "[5]", "value": 13.6, "unit": "µM"},
      {"measurement": "kcat/Km", "setting": "[5]", "value": 4670, "unit": "M⁻¹ s⁻¹"},
      {"measurement": "Kcat", "setting": "[6]", "value": 0.0217, "unit": "s⁻¹"},
      {"measurement": "Km", "setting": "[6]", "value": 12.5, "unit": "µM"},
      {"measurement": "kcat/Km", "setting": "[6]", "value": 1670, "unit": "M⁻¹ s⁻¹"},
      {"measurement": "Kcat", "setting": "[7]", "value": 0.015, "unit": "s⁻¹"},
      {"measurement": "Km", "setting": "[7]", "value": 6, "unit": "µM"},
      {"measurement": "kcat/Km", "setting": "[7]", "value": 2500, "unit": "M⁻¹ s⁻¹"},
      {"measurement": "Km", "setting": "[8]", "value": 144, "unit": "µM"},
      {"measurement": "kcat", "setting": "[8]", "value": 0.0767, "unit": "s⁻¹"},
      {"measurement": "kcat/Km", "setting": "[8]", "value": 533, "unit": "M⁻¹ s⁻¹"}
    ]}
  ]
}
